Target: gastrin-releasing peptide receptor (human) (UniProt P30550)
Sequence (P30550 whole entry): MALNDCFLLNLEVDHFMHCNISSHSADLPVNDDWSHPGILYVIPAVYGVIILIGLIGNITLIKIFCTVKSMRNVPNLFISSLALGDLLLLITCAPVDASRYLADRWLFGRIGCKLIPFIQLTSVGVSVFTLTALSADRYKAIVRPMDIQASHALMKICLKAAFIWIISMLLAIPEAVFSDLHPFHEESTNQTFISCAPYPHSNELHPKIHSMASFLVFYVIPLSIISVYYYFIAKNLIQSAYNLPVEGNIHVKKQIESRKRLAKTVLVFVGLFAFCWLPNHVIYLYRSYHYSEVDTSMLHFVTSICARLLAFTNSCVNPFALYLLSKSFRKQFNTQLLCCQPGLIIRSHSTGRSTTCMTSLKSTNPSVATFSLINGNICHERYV

EC50 of NFAT-luciferase reporter activation in CHO cells expressing hGRPR: 0.12 nM
Binder: VPLPAGGGTVLTKMYPRGNHWAVGHLM [gastrin-releasing peptide]

From article PMC4452343, “Monitoring β-arrestin recruitment via β-lactamase enzyme fragment complementation: purification of peptide E as a low-affinity ligand for mammalian bombesin receptors” (PLoS ONE, 2015)
